Patent publication US6133431
Residue numbers refer to the chain shown, from its start. One block for each binder: values may come before it.

Tests used:
[1] = biological target: thermally coagulated immunoglobulin complexes; assay: batch adsorption from human serum with 20 µg/ml Model IC, peptide on GC700m gel (4.0 mg/ml), not sterilised, C1q-CIC enzyme immunoassay
IgG in human serum [2] = assay: batch adsorption from human serum with 20 µg/ml Model IC, peptide on GC700m gel (4.0 mg/ml), not sterilised, N-Assay TIA kit
[3] = biological target: thermally coagulated immunoglobulin complexes; assay: batch adsorption from human serum with 20 µg/ml Model IC, peptide on GCL2000m gel (2.1 mg/ml), 37 °C 2 h, not sterilised, C1q-CIC enzyme immunoassay
IgG in human serum [4] = assay: batch adsorption from human serum with 20 µg/ml Model IC, peptide on GCL2000m gel (2.1 mg/ml), 37 °C 2 h, not sterilised, N-Assay TIA kit
[5] = biological target: thermally coagulated immunoglobulin complexes; assay: batch adsorption from human serum with 20 µg/ml Model IC, peptide on GCL2000m gel (2.5 mg/ml), not sterilised, C1q-CIC enzyme immunoassay
IgG in human serum [6] = assay: batch adsorption from human serum with 20 µg/ml Model IC, peptide on GCL2000m gel (2.5 mg/ml), not sterilised, N-Assay TIA kit
IgG in human serum [7] = assay: batch adsorption from human serum with 20 µg/ml Model IC, peptide on AF-Torecyl Toyopearl 650 (3.6 mg/ml), not sterilised, N-Assay TIA kit
[8] = biological target: thermally coagulated immunoglobulin complexes; assay: batch adsorption from human serum with 20 µg/ml Model IC, peptide on AF-Torecyl Toyopearl 650 (3.6 mg/ml), not sterilised, C1q-CIC enzyme immunoassay
IgM in human serum = assay: batch adsorption from the serum of a healthy subject, peptide on Thiopropyl Sepharose 6B (0.8 mg/ml), 37 °C 2 h, supernatant by N-Assay TIA kit
IgG in human serum [9] = assay: as above
[10] = biological target: IgG3 subclass in human serum; assay: batch adsorption from the serum of a healthy subject, peptide on Thiopropyl Sepharose 6B (0.8 mg/ml), supernatant by immune diffusion (SRID)
[11] = biological target: IgG2 subclass in human serum; assay: as above
[12] = biological target: IgG1 subclass in human serum; assay: as above
[13] = biological target: IgG4 subclass in human serum; assay: as above
[14] = biological target: circulating immune complexes in the serum of a patient suffering from rheumatism; assay: batch adsorption from the serum of a patient suffering from rheumatism, peptide on Thiopropyl Sepharose 6B (0.8 mg/ml), 37 °C 2 h, supernatant by C1q-CIC kit
[15] = biological target: thermally coagulated immunoglobulin complexes; assay: batch adsorption from healthy human serum with 20 µg/ml thermally coagulated complexes, peptide on Thiopropyl Sepharose 6B (0.8 mg/ml), 37 °C 2 h, supernatant by C1q-CIC kit
[16] = biological target: thermally coagulated immunoglobulin complexes; assay: batch adsorption from human serum with 20 µg/ml Model IC, peptide on GC700m gel (2.6 mg/ml), not sterilised, C1q-CIC enzyme immunoassay
IgG in human serum [17] = assay: batch adsorption from human serum with 20 µg/ml Model IC, peptide on GC700m gel (2.6 mg/ml), not sterilised, N-Assay TIA kit
[18] = biological target: thermally coagulated immunoglobulin complexes; assay: batch adsorption from human serum with 20 µg/ml Model IC, peptide on GCL2000m gel (2.6 mg/ml), not sterilised, C1q-CIC enzyme immunoassay
IgG in human serum [19] = assay: batch adsorption from human serum with 20 µg/ml Model IC, peptide on GCL2000m gel (2.6 mg/ml), not sterilised, N-Assay TIA kit

B2: MK3P47 peptide (peptide)
peptide: MKKKTTYKLVINGKTLKGETTTKAVDAETAEKAFKQYANDNGVDGVWTYDPATKTFTVTE
IC adsorption ratio (%) [3]: 35%
IgG adsorption ratio (%) (IgG in human serum [4]): 85%

B5: peptide having a sequence consisting of 57 residues of domain C3 of protein G with cysteine added to an N-terminus (peptide)
peptide: CTTYKLVINGKTLKGETTTKAVDAETAEKAFKQYANDNGVDGVWTYDDATKTFTVTE
adsorption ratio of immunoglobulins (%) (IgM in human serum): 2.7%
adsorption ratio of immunoglobulins (%) (IgG in human serum [9]): 83.4%
adsorption ratio of IgG subclasses (%) [10]: 63.2%
adsorption ratio of IgG subclasses (%) [11]: 78.9%
adsorption ratio of IgG subclasses (%) [12]: 93.2%
adsorption ratio of IgG subclasses (%) [13]: 65.7%
adsorption ratio of immune complexes (%) [14]: 29.3%
adsorption ratio of thermally coagulated complexes (%) [15]: 41.7%

B6: MP47 peptide (peptide)
peptide: B5 peptide with C1M, D48P
IC adsorption ratio (%) [16]: 35%
IgG adsorption ratio (%) (IgG in human serum [17]): 60%

B7: MG56 peptide (peptide)
peptide: B5 peptide with C1M
IC adsorption ratio (%) [1]: 30%
IgG adsorption ratio (%) (IgG in human serum [2]): 65%

Continued, values first:

IC adsorption ratio (%) [1]: 65%
IgG adsorption ratio (%) (IgG in human serum [2]): 90%
B1: MP47C peptide (peptide)
peptide: MTTYKLVINGKTLKGETTTKAVDAETAEKAFKQYANDNGVDGVWTYDPATKTFTVTEC

IC adsorption ratio (%) [5]: 30%
IgG adsorption ratio (%) (IgG in human serum [6]): 70%
B3: MK3G56 peptide (peptide)
peptide: B2 peptide with P51D

IgG adsorption ratio (%) (IgG in human serum [7]): 75%
IC adsorption ratio (%) [8]: 35%
B4: MK3-7M peptide (peptide)
peptide: B2 peptide with V10I, I11L, E28A, A33V, V46E

IC adsorption ratio (%) [18]: 35%
IgG adsorption ratio (%) (IgG in human serum [19]): 70%
B8: MP47K3 peptide (peptide)
peptide: MTTYKLVINGKTLKGETTTKAVDAETAEKAFKQYANDNGVDGVWTYDPATKTFTVTEKKK
